# From the DeepSol protein solubility set
# Assay: soluble on expression in E. coli; label from the status in PepcDB or PDB records
row,Sequence,soluble on expression in E. coli
1,SDKLNKITVPASQKLRQLQKMVHDIKNNEGGIMNKIKKLKVKAPPSVPRRDYASESPADEEQQWSDDFDSDYENPDEHSDSEMYVMPAEENADDSYEPPPVEQETRPVHPALPFARGEYIDNRSSQRHSPPFSKTLPSKPSWPSEKARLTSTLPALTALQKPQVPPKPKGLLEDEADYVVPVEDNDENYIHPTESSSPPPEKAPMVNRSTKPNSSTPASPPGTASGRNSGAWETKSPPPAAPSPLPRAGKKPTTPLKTTPVASQQNASSVCEEKPIPAERHRGSSHRQEAVQSPVFPPAQKQIHQKPIPLPRFTEGGNPTVDGPLPSFSSNSTISEQEAGVLCKPWYAGACDRKSAEEALHRSNKDGSFLIRKSSGHDSKQPYTLVVFFNKRVYNIPVRFIEATKQYALGRKKNGEEYFGSVAEIIRNHQHSPLVLIDSQNNTKDSTRLKYAVKVS,soluble
2,MGSDKIHHHHHHMKVSVVILNWNGCDMLRTFLPSVIRYSKSEEVEVCVADNGSTDASVEMLREEFPCVRIIVLDQNHGFADGYNLALQQVEAEYVVLLNSDVEVTEHWLEPMISYLDGHPEVAACQPKIRSQRQKEYFEYAGAAGGFIDKYGYPFCRGRIMGVVEKDEGQYDTILPVFWATGAALFIRHADYREAGGLDGRFFAHMEEIDLCWRLRSRGREIVCIPQSTVYHVGGATLKKENPRKTFLNFRNNLVMLYKNLSDEELNKVMRIRTCLDYVAAFTFLLKGQLDNARAVMRARKEYKQICPSFSSSRKENLRKTSLNPIPERIKSSILWQFYVGGCKRFSQLSDLKG,not soluble
3,MAHHHHHHMSTDIPVNDNETNSSFKLKSEINSIENELKNWFLKRRLNMEINYSLKKLFDSYNFVGLSINNNINLKDKMLWYDIVNGKPELEDTLSMDAKEYKADQYSYLWNKSTTIDNACRLVGSIYFRCLKNNFQLKKSEREHKCIQNFINFNNCRNALKLQQANNIKDSLIKQNMEDNIAKALFERRSLLLDMLEDFK,not soluble
4,MGSDKIHHHHHHMLANGDVPILQLQHIIKRFGNQVAVNDVSLNIHRGEIVALLGENGAGKSTLIKILAGLYSRDEGEIYFHQQKIQSAQSLTNKNKQPIAFIHQDLGLVEWMTIAENMAFVMGFPRRFGLIDWKKINQQAQEALDFVGIHLSAQTRVFDLSRTEKALLTIARAIAVNAEILVLDEPTASLPASDVEHLFKVLNRLRKQGVGMIYVTHRLDEVIRLSDRILVMRDGYSVAEGSTKDYDVKALVKAIVGEETREKQREPLPKNTPEVVRLNEVVVGDTGPVSFSLHQGEMIALAGLRGAGQEEIGRLLFGLRKLESGDISLNECAYHAESPCEAIYKGVALVAGDRIREGLVMSMTTMENLFINPILSGHFPLKNYASKKERSECWYQFQLFDIRPKNLFIEVSSLSGGNQQKIVLARWMQLNTPVLILEDPTAGVDVGARAEIYDLLNQALKKGVAIIVISNDFEEIAHLCNRALVFNRGDIVGELFNEQVTFANLLALASDASATIN,not soluble
5,MEVDTASSRHSTVLKRKATDSINEILNYGQSSTSPQKRCKKAASLHKYRDMETYHKIIKTYKAPTWYGCAVSPRDLADYGWACVKKDCVKCIECEQYLSTVLPNICKVSFNVYNSSLQDIHEKMTTAHRTTCKLRCGAPPFRIVEPTAKEVMDGIQRRLSDSKKIIDEDLKADIPSDVNLPKIEGVPEQLIYVAALGWHVSMPKRGSLLFGCDNCARELAIRCGNKFDPIHNHERWCPRIEMDDHGEPSWQSDLNTVLNTKNHVTNRYTGSSIFKEAYAARRLLDSSLSTIITPNYI,not soluble
6,MSLSRPQFDPSAYAAQLEDKKSRLAGLLAPFAAPAPEVFESPREHYRLRAEFRLWRETGNEKRHYAMFEQGDKHTPILLEDFPIASRRINELMPRLKAAWADPALGFKLFQVEFLTTLAGDALITLCYHRPIDDAWRQAAEKLAAELGVNLVGRSRGKRIVVGRDYVEEELSVAGRRFRYRQPEGAFTQPNGEVNQKMLGWAYEALGQRDDDLLELYCGNGNFTLPLATRVRKVLATEISKSSVNAALANLADNAVDNVSLVRLSAEELTQALNEVRPFRRLADIDLKSYAFGSVFVDPPRAGMDPDTCELARRFERILYISCNPETLAQNIAQLHDTHRISRCALFDQFPYTHHMESGVLLEEGHHHHHH,soluble
7,TPTRFLVAFDGSATSRKTVEMVSRSPLLQGMQAHVLTAGSDAGEARQALQWAREQLAQGGFDAITHHAAERPADALAAYAGQHGIDMLVMGAYGHSRIRQLVLGSTTTEILSRVSLAVLILR,not soluble
8,MAHHHHHHMSVTASAAAAAAAAAASPRPPSSALYTERLFYAVLKQGNPSEARVEALAALALRHLPKSAETWAALRKALMEQSDLDGAPNRTLWYVLDALIKHAPHVFVPLVAPRLLEYTIQQLPWELAGHRGQTLLWFEALVLSWEKVLPQRLYSAVRQHAVQSRSGAELHDLLEAAENSVDDGTSASPADLQQLRDAWDAVQYMGEQEAGKSVFHARLIAAAVVVADEDGNSSLSPSPPVSGLYATPTGHNGRTAGAGTSGADIANTQQQQQQQEEDEYTPDFIEGAKPRELPKLDLPKLKRRREGRRRPREEDLGM,soluble
9,MAHHHHHHMDNLFYYMIIQNDRIQPIIVRQPQTVIIHSQPKLPITLDLPPQNIILKNEDPQPIIVRQSNPNIIIEKSQNDFYNHPNFHIGLHDKVNSMSDINNTNIKEQPIKDNMIEDMQNINNADTQFYYNNQNVINENNVLPTHYSYLNNGVFNKEHNYDPYNFTLYSNK,not soluble
10,GSMFTPKPPQDSAVIKAGYCVKQGAVMKNWKRRYFQLDENTIGYFKSELEKEPLRVIPLKEVHKVQECKQSDIMMRDNLFEIVTTSRTFYVQADSPEEMHSWIKAVSGAIVAQRGPGRSASSEHP,soluble
11,MSLQESLQDRLAQVVELLHRHKVVEDLTHRQEGQHHDRVENLVHRQNLVELQRKLEELHPADIAHILESLPLDDRLTVWQLVKSEDDGDILLEVSDAVRETLIADMDDHEIIAATKDLDADELADLAPELPRDVVHELMESLDAQQRERVRSALSYEEDQVGALMDFEMVTIREDVSLEVVLRYLRRLKELPGHTDKLFVVDYDGVLKGVLPIKRLLVNDPDKQVLEVMATDPVTFHPDEDGYDAAQAFERYDLISAPVVDKGGKLIGRLTIDEMVDLIREESESEVLNMAGLREEEDIFASVWEGHHHHHH,soluble
12,STSGPGGPAAAAGGRKENHQWYVCNREKLCESLQAVFVQSYLDQGTQIFLNNSIEKSGWLFIQLYHSFVSSVFSLFMSRTSINGLLGRGSMFVFSPDQFQRLLKINPDWKTHRLLDLGAGDGEVTKIMSPHFEEIYATELSETMIWQLQKKKYRVLGINEWQNTGFQYDVISCLNLLDRCDQPLTLLKDIRSVLEPTRGRVILALVLPFHPYVENVGGKWEKPSEILEIKGQNWEEQVNSLPEVFRKAGFVIEAFTRLPYLCEGDMYNDYYVLDDAVFVLKPV,soluble
13,MAEQSDKDVKYYTLEEIQKHKDSKSTWVILHHKVYDLTKFLEEHPGGEEVLREQAGGDATENFEDVGHSTDARELSKTYIIGELHPDDRSKIAKPSETL,soluble
14,MPALEFFKDKERGVLDPKVFERAREVAEGLARGKLKSSQFRNYFAELRALENRFERERRKEGEELAFARLVPQLELLRAKLFYNTRSQGPLRDAKEFVEFMEEALEAGKRSPKDFEAMMKYVEAVLAYFYALAK,soluble
15,MFRSSFCKNLENATSHLRLEPDWPSILLICDEINQKDVTPKNAFAAIKKKMNSPNPHSSCYSLLVLESIVKNCGAPVHEEVFTKENCEMFSSFLESTPHENVRQKMLELVQTWAYAFRSSDKYQAIKDTMTILKAKGHTFPELREADAMFTADTAPNWADGRVCHRCRVEFTFTNRKHHCRNCGQVFCGQCTAKQCPLPKYGIEKEVRVCDGCFAALQRG,soluble
16,MKKVSPSYLKHQFLIAMPHMHDENFAQTLTYVVEHNANGAMGLVINRPQSLTLADVLEQLRPELPAPKRCQEIAIHAGGPVQTDRGFVLHPSGQTFQATVDLPGGISLSTSQDVLFSIADGYGPDQNVITLGYAGWDAGQLDAEMADNAWLTCSFDPAILFDVDSDQRLDAAARRLGINLALISTQAGHAAAALEHHHHHH,not soluble
17,MNIQAIDTRHGTANQHSFSNGNCLPYTGVPFGMNFYAPQTTDQKGSWWFHPEDRTFQGYRVTHQPSPWMGDFSHLLMTPVSGSLSELSLFHAQSSYRPEESLFSPVEINLTQLRYQITSQLIPSMYGGILTIDYQQKDNHLLLTLPGRYQVKQLDDHQVAVKVINYSGCEDPDFSFYFVLHFEQPLTKWFAPSSGLEHHHHHH,not soluble
18,MTEQVLFSVSENGVATITLNRPKALNSLSYDMLQPIGQKLKEWEHDERIALIVLKGAGTKGFCAGGDIKTLYEARSNEVALQHAERFFEEEYEIDTYIYQYTKPIIACLDGIVMGGGVGLTNGAKYRIVTERTKWAMPEMNIGFFPDVGAAYFLNKAPGYTGRFVALTASILKASDVLFINAADYFMTSDSLPEFLTELESVNWHKEDDVHTNLKEVIRTFATAPNLESELAPSLEVINSHFAFDTIEEIIHSLEKDESSFALKTKEILLSKSPISLKVTLKQFIDGQDKSVEECFATDLILAKNFMRHEDFFEGVRSVVVDKDQNPNYKYKQLSDVSEEDVNRFFNLLNA,not soluble
19,MGSDKIHHHHHHMNTTASPSRLLGVGLYTASQASSYTGIPAKDIRRWMFGYSASGVEHPGLWAPEIAFLDDKLLGFHDLLEIRFVHAFRQHGVSLQAIRSASLQAREMFGQRYPFTCRRFQTDGRDIFATVLDETGDEALLDLVKRQYAFKQVITPSLYEGIDYAGEESAKRWYPVKRSKAVVLDPARNFGKPVLTITGIDTAAIYHSYLAEGQSAKRVALLYEIPPAAVEAAVNFEHRIAA,not soluble
20,MTRSRRGALARSSEGGPFPTADPVADRALCGWRVRSVIDLPELPLWTRDDRLPDVTIAFGRVTPVESASPGMNWHVVGEGRFRFTVASVGSYRISRGRVITIDPQAGVVASAVRQYLLGTAFGVLCHQRGLLPLHASCVAINGRAVAIAGASGAGKSSLAAALVRLGYPLLGDDVCVIDASEINAPHVLPAIPRLKLWRDVLDTFGLIVDPAARILEGIDKYQAQALADRPPPPPPQVPLPLGVVYYLDQAESPDDEGFHAIRGAERAAALAGAVYRRKMGLAMGLLPQIFTATMTVGALVPGHRLLRHGDLSGLDALARSVAARQEGRGLEHHHHHH,not soluble
21,MKQRGGFLGGQLLIAMPGMNDKRFIRSVIYICAHSDAGAMGIILNQLHHIGFPELLLHLGVINSGQKKDLSEPIKKFPVRYGGPVDPSRGFVLHSDDYACEETVLVADKICFTATIDILKAISCEKGPQHALIALGYAGWKAGQLEAEISTNGWLISSTSPSFLFESDLNRKYDESLIRMGINPTYLVSEMGHA,not soluble
22,AIASFRTCHNWFPLCLLLKETNNDISGEGIYSSRSELFQQPLAKETQRWSTGPSFVKHYGRLKRHSLPAVHFFDNSQSFLQNLQPNETFPETTTLDWKELENATRLLNDFMESASEDGDSLFDDEFPTMHAKTKLQDGLSTHPQSPPSDITQSVLSNTQSPVPSMLSETELPDFGEDFVNANEELVS,soluble
23,MGSDKIHHHHHHMSLSSPASRPPLQIRATPVWSPQRDENAEHIVLSPDEQYELGRLGEIIEYRTAKLEILSQSEPADFLYLLIEGVVQACHSLKDGQRQIVAFYWPGDIFGLAEKGLYVNSSEAVTPCSVYRFPFRKLEKFLLEHPRIQQGFFVKAVHEIRTAQRHTITIGQLELPQRLAAFLVDCSEHDRYFDSESSTLSLPMLRYDIADYLGTSVEAVSRTFALLEKNGLVQRKGPRKLEISMKKLIDFSGIA,not soluble
